Measured values from patent US20130184160, “NUCLEOTIDES AND APTAMERS CONTAINING BORONIC ACID GROUPS HAVING BIASED BINDING TO GLYCOSYLATED PROTEINS, AND USES THEREOF” (published 2013).

Assays:
[1] = molecular target: T1, Fibrinogen (glycosylated, untreated) (UniProt P02671-2;P02675;P02679 P02671-2:20-644,P02675:31-491,P02679:27-453); experiment: filter; same buffer; 193 nM in Table 1; settings: chain copies: 2; label: alpha-32P-dATP
Procedure: (§1) Dissociation constants in solution were determined by equilibrium filtration (Jenison et al., Science 1994, 263, 1425-1429; Huang & Szostak, RNA 2003, 9: 1456-1463, incorporated herein by reference in their entireties). Using this technique, the bound and unbound ligand (DNA) partition between the two portions separated by a membrane. DNA was first amplified into dsDNA using two primers by PCR (25 cycles of 0.5 min at 94° C., 0.5 min at 46° C., and 0.5 min at 72° C., followed by 5 min at 72° C.). The dsDNA product was then split into ssDNA using one primer and α-³²P-dATP by one-round PCR. The ³²P-labeled ssDNA ligand (10 nM) and the protein (1-1000 nM) in the 100 μL of binding buffer were incubated for 15 min at 25° C. prior to loading into the Microcon YM-100 unit (Millipore, Billerica, Mass.). The solution was centrifuged at 13,000 g for 10 sec to saturate the membrane, and the filtrate was transferred back to the unit. […] Aliquots (10 μL) were taken from both the remaining solution and the filtrate, and radioactivity in each aliquot was determined by Beckman LS 6500 liquid scintillation counter. […]
(§2) To determine the extent to which the aptamers 85A (SEQ ID NO.: 13), 85B (SEQ ID NO.: 14), and 85C (SEQ ID NO.: 15) bind specifically to fibrinogen, their dissociation constants (Kd) were measured using the equilibrium filtration method with radiolabeled α-³²P-dATP. […]

[2] = molecular target: Fibrinogen, periodate-treated (UniProt P02671-2;P02675;P02679 P02671-2:20-644,P02675:31-491,P02679:27-453); experiment: filter; same buffer; settings: tags: glycans oxidised with sodium periodate; chain copies: 2; label: alpha-32P-dATP
Procedure: (§3) Dissociation constants in solution were determined by equilibrium filtration (Jenison et al., Science 1994, 263, 1425-1429; Huang & Szostak, RNA 2003, 9: 1456-1463, incorporated herein by reference in their entireties). Using this technique, the bound and unbound ligand (DNA) partition between the two portions separated by a membrane. DNA was first amplified into dsDNA using two primers by PCR (25 cycles of 0.5 min at 94° C., 0.5 min at 46° C., and 0.5 min at 72° C., followed by 5 min at 72° C.). The dsDNA product was then split into ssDNA using one primer and α-³²P-dATP by one-round PCR. The ³²P-labeled ssDNA ligand (10 nM) and the protein (1-1000 nM) in the 100 μL of binding buffer were incubated for 15 min at 25° C. prior to loading into the Microcon YM-100 unit (Millipore, Billerica, Mass.). The solution was centrifuged at 13,000 g for 10 sec to saturate the membrane, and the filtrate was transferred back to the unit. The solution was centrifuged for another 20 sec, and the filtrate (about 10 μL) was collected. Aliquots (10 μL) were taken from both the remaining solution and the filtrate, and radioactivity in each aliquot was determined by Beckman LS 6500 liquid scintillation counter. All binding assays were duplicated. The equilibrium dissociation constants (Kd) of the ligand-protein interaction were obtained by fitting the dependence of bound fractions of specific binding on the concentration of the […] to the equation Y=B max X/(Kd+X), using the SigmaPlot program.
(§4) To determine the extent to which the aptamers 85A (SEQ ID NO.: 13), 85B (SEQ ID NO.: 14), and 85C (SEQ ID NO.: 15) bind specifically to fibrinogen, their dissociation constants (Kd) were measured using the equilibrium filtration method with radiolabeled α-³²P-dATP. The target substrate to which the aptamer was binding was fibrinogen (FIG. 12A), deglycosylated fibrinogen (FIG. 12B) and periodated fibrinogen (FIG. 12C).

[3] = molecular target: Fibrinogen, deglycosylated (UniProt P02671-2;P02675;P02679 P02671-2:20-644,P02675:31-491,P02679:27-453); experiment: filter; same buffer; settings: tags: chemically deglycosylated with TFMS; chain copies: 2; label: alpha-32P-dATP
Procedure: as §3, §4

[4] = molecular target: T1, Fibrinogen (glycosylated, untreated); experiment: filter; same buffer; 64 nM in Table 1; settings: chain copies: 2; label: alpha-32P-dATP
Procedure: as §1, §2

[5] = molecular target: T2, Fetuin (UniProt P12763 P12763:19-359); experiment: filter; specificity control; settings: label: alpha-32P-dATP
T2 sequence: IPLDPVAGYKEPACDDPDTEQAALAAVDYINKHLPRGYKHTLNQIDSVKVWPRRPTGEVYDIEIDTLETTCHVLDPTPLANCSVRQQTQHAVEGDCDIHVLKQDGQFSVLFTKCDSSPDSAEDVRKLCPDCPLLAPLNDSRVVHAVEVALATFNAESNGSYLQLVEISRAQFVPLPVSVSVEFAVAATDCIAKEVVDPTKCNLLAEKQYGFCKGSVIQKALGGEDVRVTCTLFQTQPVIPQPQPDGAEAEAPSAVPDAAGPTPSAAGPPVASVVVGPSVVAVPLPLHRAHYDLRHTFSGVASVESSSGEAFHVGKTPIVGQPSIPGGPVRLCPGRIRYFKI

[6] = molecular target: Alpha-1 acid glycoprotein (UniProt P02763 P02763:19-201); experiment: filter; specificity control; settings: label: alpha-32P-dATP
[7] = molecular target: T1, Fibrinogen (glycosylated, untreated); experiment: filter; same buffer; 102 nM in Table 1; settings: chain copies: 2; label: alpha-32P-dATP
Procedure: as §1, §2

[8] = molecular target: T1, Fibrinogen (glycosylated, untreated); experiment: filter; same buffer; boronic acid destroyed by peroxide; settings: chain copies: 2; label: alpha-32P-dATP
[9] = molecular target: T1, Fibrinogen (glycosylated, untreated); experiment: filter; same buffer; settings: chain copies: 2; label: alpha-32P-dATP
Procedure: as §3, §4

Chain of Fibrinogen, periodate-treated (P02671 other isoform, or with tags, fused parts or gaps, chain 1 of 3): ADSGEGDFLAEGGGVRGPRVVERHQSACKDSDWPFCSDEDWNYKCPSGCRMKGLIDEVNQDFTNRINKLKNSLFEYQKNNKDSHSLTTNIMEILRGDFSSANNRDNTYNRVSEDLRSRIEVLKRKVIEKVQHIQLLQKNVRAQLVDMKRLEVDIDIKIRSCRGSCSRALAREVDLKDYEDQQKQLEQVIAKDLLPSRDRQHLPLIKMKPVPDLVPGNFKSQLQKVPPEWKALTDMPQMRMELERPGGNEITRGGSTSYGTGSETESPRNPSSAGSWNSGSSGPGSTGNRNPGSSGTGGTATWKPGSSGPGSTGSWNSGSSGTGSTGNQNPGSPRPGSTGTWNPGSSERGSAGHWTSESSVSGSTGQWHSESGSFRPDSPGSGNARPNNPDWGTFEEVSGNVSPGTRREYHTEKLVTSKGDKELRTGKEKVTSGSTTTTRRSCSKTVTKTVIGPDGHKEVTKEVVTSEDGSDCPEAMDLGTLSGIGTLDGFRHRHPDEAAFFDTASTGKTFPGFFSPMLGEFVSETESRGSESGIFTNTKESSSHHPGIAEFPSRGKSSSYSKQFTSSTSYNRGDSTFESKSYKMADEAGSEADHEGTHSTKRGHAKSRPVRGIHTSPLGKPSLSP
Chain of Fibrinogen, periodate-treated (P02675 31-491, chain 2 of 3): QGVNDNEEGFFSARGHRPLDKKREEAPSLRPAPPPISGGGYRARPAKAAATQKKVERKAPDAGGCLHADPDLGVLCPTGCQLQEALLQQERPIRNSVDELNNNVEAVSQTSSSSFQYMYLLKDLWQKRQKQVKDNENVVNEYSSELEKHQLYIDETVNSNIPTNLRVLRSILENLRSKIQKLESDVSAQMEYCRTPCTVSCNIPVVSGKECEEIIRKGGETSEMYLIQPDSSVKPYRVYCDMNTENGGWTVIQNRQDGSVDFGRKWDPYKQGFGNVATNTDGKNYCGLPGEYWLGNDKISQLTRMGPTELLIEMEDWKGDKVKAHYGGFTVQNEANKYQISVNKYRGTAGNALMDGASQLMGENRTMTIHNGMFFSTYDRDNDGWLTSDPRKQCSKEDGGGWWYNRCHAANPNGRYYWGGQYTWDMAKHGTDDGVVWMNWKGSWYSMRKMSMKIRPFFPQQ
Chain of Fibrinogen, periodate-treated (P02679 27-453, chain 3 of 3): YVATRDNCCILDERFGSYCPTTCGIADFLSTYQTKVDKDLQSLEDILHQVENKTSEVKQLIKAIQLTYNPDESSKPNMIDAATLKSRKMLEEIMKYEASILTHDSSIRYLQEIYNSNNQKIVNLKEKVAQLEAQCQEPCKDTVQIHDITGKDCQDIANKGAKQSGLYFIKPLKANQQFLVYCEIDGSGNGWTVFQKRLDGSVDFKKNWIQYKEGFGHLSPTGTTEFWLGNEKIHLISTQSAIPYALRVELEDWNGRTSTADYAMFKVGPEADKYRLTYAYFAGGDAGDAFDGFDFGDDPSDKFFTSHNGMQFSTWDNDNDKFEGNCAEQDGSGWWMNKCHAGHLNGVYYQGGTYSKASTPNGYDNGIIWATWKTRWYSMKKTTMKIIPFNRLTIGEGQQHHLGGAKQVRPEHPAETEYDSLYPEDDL
Chain of Fibrinogen, deglycosylated (P02671 other isoform, or with tags, fused parts or gaps, chain 1 of 3): as the sequence (P02671 other isoform, or with tags, fused parts or gaps, chain 1 of 3) above
Chain of Fibrinogen, deglycosylated (P02675 31-491, chain 2 of 3): as the sequence (P02675 31-491, chain 2 of 3) above
Chain of Fibrinogen, deglycosylated (P02679 27-453, chain 3 of 3): as the sequence (P02679 27-453, chain 3 of 3) above
T1 sequence (P02671 other isoform, or with tags, fused parts or gaps, chain 1 of 3): as the sequence (P02671 other isoform, or with tags, fused parts or gaps, chain 1 of 3) above
T1 sequence (P02675 31-491, chain 2 of 3): as the sequence (P02675 31-491, chain 2 of 3) above
T1 sequence (P02679 27-453, chain 3 of 3): as the sequence (P02679 27-453, chain 3 of 3) above
Chain of Alpha-1 acid glycoprotein (P02763 19-201, one chain of several): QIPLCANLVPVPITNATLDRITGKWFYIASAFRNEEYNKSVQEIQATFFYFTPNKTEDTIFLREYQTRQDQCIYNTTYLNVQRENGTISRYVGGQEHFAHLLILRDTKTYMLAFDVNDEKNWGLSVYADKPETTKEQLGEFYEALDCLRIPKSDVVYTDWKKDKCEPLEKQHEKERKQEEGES

B1: 85C TTP (ssDNA)
DNA: CCTTCGTTGTCTGCCTTCGTAGTCGACTCTGACGCATGGACGTATCCTGTGCGTATGCATTATGAAGCACACCCTTCAGAATTCGCACCA
Which Kd [1] does the source give for B1 here?
Its Kd is 122 nM.

What about the Kd [2] of the same binder?
Its Kd is 321 nM.

And the Kd [3]?
Its Kd is 256 nM.

B2: 85B TTP (ssDNA)
DNA: CCTTCGTTGTCTGCCTTCGTAGGACCGCAGACATCGACGCAGGGAAATTCCGCAAGTCCAGCCAAATGCCACCCTTCAGAATTCGCACCA
How did the Kd [4] turn out when B2 was run?
The Kd was 63.8 nM.

What about the Kd [2] of the same binder?
Its Kd is 130 nM.

What about the Kd [3] of the same binder?
The Kd was 140 nM.

B3: 85A TTP (ssDNA)
DNA: CCTTCGTTGTCTGCCTTCGTAGCGGATCGAATTACGCGTTAACGGCAACCGATAACGGGACCGATTGCACACCCTTCAGAATTCGCACCA
How did the Kd [5] turn out when B3 was run?
The Kd was 1600 nM.

What about the Kd [6] of the same binder?
Its Kd is 600 nM.

What about the Kd [2] of the same binder?
Its Kd is 67.4 nM.

What about the Kd [3] of the same binder?
The Kd was 60.2 nM.

And the Kd [7]?
Its Kd is 102 nM.

B4: 85A B-TTP H2O2-treated (ssDNA)
DNA: CCTTCGTTGTCTGCCTTCGTAGCGGATCGAATTACGCGTTAACGGCAACCGATAACGGGACCGATTGCACACCCTTCAGAATTCGCACCA
modifications: B-TTP positions with boronic acid oxidised by peroxide
B4 was tested. Which Kd [8] did it give?
Its Kd is 173 nM.

B5: 85A M-TTP (ssDNA)
DNA: CCTTCGTTGTCTGCCTTCGTAGCGGATCGAATTACGCGTTAACGGCAACCGATAACGGGACCGATTGCACACCCTTCAGAATTCGCACCA
modifications: T positions from M-TTP (alkyne-modified dU without boronic acid)
How did the Kd [9] turn out when B5 was run?
The Kd was 138 nM.
